# Experimental data as given in patent US20160258933A1 (Dana-Farber, published 2016).
# Ends that are not written are not given here. * marks the point of attachment. FITC = O=C1OC2(c3ccc(O)cc3Oc3cc(O)ccc32)c2ccc(NC(=S)*)cc21; Ahx = NCCCCCC(=O)O
# T1: GST-BCL-w (human, UniProt Q92843 1-164, limits assumed)
# T1 construct: Bacterially expressed GST fusion; not shown: GST tag
# T1 sequence (looked up): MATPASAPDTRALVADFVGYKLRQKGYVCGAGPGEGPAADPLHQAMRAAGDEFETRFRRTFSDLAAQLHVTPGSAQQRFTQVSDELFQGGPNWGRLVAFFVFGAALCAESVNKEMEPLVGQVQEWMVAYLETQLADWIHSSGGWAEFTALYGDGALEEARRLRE
# T2: GST-BFL-1 (human, UniProt Q16548 1-153, limits assumed)
# T2 construct: Bacterially expressed GST fusion; not shown: GST tag
# T2 sequence (looked up): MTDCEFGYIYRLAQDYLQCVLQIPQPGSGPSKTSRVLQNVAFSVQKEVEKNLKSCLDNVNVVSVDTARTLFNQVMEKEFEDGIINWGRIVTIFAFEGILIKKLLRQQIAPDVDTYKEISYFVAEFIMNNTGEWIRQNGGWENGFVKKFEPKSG
# How the values were obtained:
# GST-BCL-XL = biological target: T3, GST-BCL-XL (human, UniProt Q07817 1-212, limits assumed); experiment: fluorescence polarization, FITC peptide with GST-BCL-XL
# T3 construct: Bacterially expressed GST fusion; not shown: GST tag
# Description: (§1) Binding assays were performed using fluorescence polarization as previously described (Letai et al., 2002). A minimum of three independent experiments were used to determine each dissociation constant.
# (§2) To determine selectivity in interactions among antiapoptotic BCL-2 family members and BH3 domains of BH3-only proteins, fluorescence polarization binding assays (FPA) were used. Antiapoptotic proteins BCL-2, BCL-XL, MCL-1, BCL-w, and BFL-1 were purified from transfected bacteria as GST fusion proteins. Oligopeptides used for FPA were tagged with an N-terminal FITC moiety.
# GST-BCL-w = biological target: T1, GST-BCL-w; experiment: fluorescence polarization, FITC peptide with GST-BCL-w
# Description: as §1, §2
# GST-BFL-1 = biological target: T2, GST-BFL-1; experiment: fluorescence polarization, FITC peptide with GST-BFL-1
# Description: as §1, §2
# GST-BCL-2 [1] = biological target: T4, GST-BCL-2 (human, UniProt P10415 1-218, limits assumed); experiment: fluorescence polarization, FITC peptide with GST-BCL-2
# T4 construct: Bacterially expressed GST fusion; not shown: GST tag
# Description: as §1, §2
# GST-BCL-2 [2] = biological target: T4, GST-BCL-2; experiment: fluorescence polarization displacement of fluorescein BIM BH3 from 0.5 uM GST-BCL-2
# Description: as §1
# GST-MCL-1 = biological target: T5, GST-MCL-1 (human, UniProt Q07820 1-327, limits assumed); experiment: fluorescence polarization displacement of fluorescein BIM BH3 from 0.1 uM GST-MCL-1
# T5 construct: not shown: GST tag
# Description: as §1
# GST-BCL-2 [3] = biological target: T4, GST-BCL-2; experiment: fluorescence polarization (Table 2b) as retold
# T4 sequence (P10415 1-218 limits assumed): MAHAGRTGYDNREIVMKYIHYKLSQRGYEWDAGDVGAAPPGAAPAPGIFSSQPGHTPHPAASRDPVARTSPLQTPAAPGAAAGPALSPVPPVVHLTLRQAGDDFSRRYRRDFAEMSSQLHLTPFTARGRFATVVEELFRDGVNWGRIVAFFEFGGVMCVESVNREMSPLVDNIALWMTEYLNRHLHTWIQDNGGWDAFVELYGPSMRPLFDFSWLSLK
# T3 sequence (Q07817 1-212 limits assumed): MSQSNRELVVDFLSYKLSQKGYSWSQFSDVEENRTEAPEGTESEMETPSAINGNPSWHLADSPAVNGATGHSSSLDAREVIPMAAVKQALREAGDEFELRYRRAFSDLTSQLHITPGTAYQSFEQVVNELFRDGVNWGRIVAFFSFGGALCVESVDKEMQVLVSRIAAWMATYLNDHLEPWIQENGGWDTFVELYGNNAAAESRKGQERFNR
# T5 sequence (Q07820 1-327 limits assumed): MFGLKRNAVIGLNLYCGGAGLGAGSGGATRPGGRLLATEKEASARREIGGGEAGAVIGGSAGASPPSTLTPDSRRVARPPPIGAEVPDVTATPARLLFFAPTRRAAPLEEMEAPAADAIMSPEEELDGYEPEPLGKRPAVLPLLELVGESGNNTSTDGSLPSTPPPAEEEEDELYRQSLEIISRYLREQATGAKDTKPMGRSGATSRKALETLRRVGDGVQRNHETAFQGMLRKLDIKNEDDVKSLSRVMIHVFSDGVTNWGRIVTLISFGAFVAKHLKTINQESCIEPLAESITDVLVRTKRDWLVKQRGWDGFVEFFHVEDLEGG
binder,measurement,setting,value
"{FITC-Ahx}-AELPPEFAAQLRKIGDKVYC [NOXA A BH3 peptide, N-terminal fluorescein tagged]",binding result,GST-BCL-XL,no binding
same,binding result,GST-BCL-w,no binding
same,binding result,GST-BFL-1,no binding
same,binding result,GST-BCL-2 [1],no binding
AELPPEFAAQLRKIGDKVYC (Peptide as titrated in the displacement assay and used on mitochondria and cells) [NOXA A BH3 peptide (no tag stated)],binding result,GST-BCL-2 [2],no binding
LWAAQRYGRELRRMSDEFEGSFKGL (Peptide as titrated in the displacement assay and used on mitochondria and cells) [BAD BH3 peptide (no tag stated)],binding result,GST-MCL-1,no binding
"{FITC-Ahx}-MEGSDALALRLACIGDEMDV [BIK BH3 peptide, N-terminal fluorescein tagged]",fold lower affinity than BAD BH3,GST-BCL-2 [3],~10 fold
same,"fold lower affinity than BAD, PUMA or BMF BH3",GST-BCL-2 [3],~10 fold
"{FITC-Ahx}-PADLKDECAQLRRIGDKVNL [NOXA B BH3 peptide, N-terminal fluorescein tagged]",binding result,GST-BCL-XL,no binding
same,binding result,GST-BCL-w,no binding
same,binding result,GST-BFL-1,no binding
same,binding result,GST-BCL-2 [1],no binding
